One molecule from patent US20170043014A1 (Novo Nordisk, published 2017) can be followed below.

The assay concerns the target Recombinant mouse IL-21 (mouse, UniProt Q9ES17 18-146). The experiment in a line: capture style ELISA, clone selection.

B1: Mouse surrogate anti-IL-21 antibody (antibody, IgG1, V domains shown)
VH: EVQLVESGGGLVKPGGSLKLSCAASGFTFNRYSMSWVRQSPEKRLEWVAEISVGGSYTQYVDIVTGRFTISRDNAKNTLYLEMSSLRSEDTAMYYCARLYYSGSGDSYYYAMDYWGQGTSVTVSS
VL: QTVLIQSPAIMSASPGEKVTMTCSASSSVSYMHWYQQKSGTSPKRWIYDTSKLASGVPARFSGSGSGTSYSLTISSMEAEDAATYYCQQWNSNPPTFGGGTKLEMK
notes: mIgG1/kappa isotype
For the molecule B1, the binding result is “binds”.
